The text below walks through data of publication doi:10.1101/2022.09.21.508836 (bioRxiv, 2022).

The target of the test is FIP200 (full length) (human, UniProt Q8TDY2 1-1594). Briefly: pull-down.
FIP200 (full length), sequence (Q8TDY2 whole entry): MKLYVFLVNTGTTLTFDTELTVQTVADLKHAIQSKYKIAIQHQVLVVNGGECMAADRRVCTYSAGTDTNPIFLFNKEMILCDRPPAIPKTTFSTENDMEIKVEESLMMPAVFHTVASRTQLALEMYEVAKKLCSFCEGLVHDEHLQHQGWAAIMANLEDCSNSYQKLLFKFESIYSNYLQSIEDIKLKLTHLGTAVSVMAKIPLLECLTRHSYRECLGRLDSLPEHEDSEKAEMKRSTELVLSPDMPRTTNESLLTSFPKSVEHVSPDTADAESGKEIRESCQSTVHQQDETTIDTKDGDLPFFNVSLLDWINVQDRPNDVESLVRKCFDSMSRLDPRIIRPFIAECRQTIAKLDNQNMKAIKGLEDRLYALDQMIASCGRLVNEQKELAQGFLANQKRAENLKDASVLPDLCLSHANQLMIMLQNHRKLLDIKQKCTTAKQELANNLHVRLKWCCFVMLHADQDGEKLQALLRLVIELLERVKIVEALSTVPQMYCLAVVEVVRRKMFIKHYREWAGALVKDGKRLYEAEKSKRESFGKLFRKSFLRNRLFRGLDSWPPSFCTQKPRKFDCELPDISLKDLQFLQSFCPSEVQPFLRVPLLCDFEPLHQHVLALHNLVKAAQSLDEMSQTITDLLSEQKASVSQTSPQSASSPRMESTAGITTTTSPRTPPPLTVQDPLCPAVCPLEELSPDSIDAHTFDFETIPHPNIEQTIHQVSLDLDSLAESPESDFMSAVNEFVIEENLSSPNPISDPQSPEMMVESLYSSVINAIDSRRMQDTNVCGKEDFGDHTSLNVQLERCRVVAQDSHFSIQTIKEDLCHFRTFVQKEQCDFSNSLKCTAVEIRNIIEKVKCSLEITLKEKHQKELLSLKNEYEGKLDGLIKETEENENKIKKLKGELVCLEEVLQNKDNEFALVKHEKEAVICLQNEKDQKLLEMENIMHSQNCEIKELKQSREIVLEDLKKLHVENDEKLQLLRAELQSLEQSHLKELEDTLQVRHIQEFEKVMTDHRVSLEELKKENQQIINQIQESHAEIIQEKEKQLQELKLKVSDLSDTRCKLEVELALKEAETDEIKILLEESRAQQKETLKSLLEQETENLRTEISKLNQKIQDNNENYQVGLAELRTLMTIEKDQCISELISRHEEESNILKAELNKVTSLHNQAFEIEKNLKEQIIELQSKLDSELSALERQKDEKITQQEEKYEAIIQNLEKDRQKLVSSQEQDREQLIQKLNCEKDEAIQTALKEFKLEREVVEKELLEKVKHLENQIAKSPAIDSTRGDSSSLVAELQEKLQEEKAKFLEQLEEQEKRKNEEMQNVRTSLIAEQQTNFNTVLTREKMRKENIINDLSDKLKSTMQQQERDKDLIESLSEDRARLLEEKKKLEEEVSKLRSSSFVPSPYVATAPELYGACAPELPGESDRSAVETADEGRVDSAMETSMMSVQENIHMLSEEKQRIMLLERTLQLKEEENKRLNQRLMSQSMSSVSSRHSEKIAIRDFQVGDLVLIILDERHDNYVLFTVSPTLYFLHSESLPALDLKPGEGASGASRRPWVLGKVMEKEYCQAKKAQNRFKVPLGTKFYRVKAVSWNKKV

B1: ULK1 (full length) (enzyme)
chain: MEPGRGGTETVGKFEFSRKDLIGHGAFAVVFKGRHREKHDLEVAVKCINKKNLAKSQTLLGKEIKILKELKHENIVALYDFQEMANSVYLVMEYCNGGDLADYLHAMRTLSEDTIRLFLQQIAGAMRLLHSKGIIHRDLKPQNILLSNPAGRRANPNSIRVKIADFGFARYLQSNMMAATLCGSPMYMAPEVIMSQHYDGKADLWSIGTIVYQCLTGKAPFQASSPQDLRLFYEKNKTLVPTIPRETSAPLRQLLLALLQRNHKDRMDFDEFFHHPFLDASPSVRKSPPVPVPSYPSSGSGSSSSSSSTSHLASPPSLGEMQQLQKTLASPADTAGFLHSSRDSGGSKDSSCDTDDFVMVPAQFPGDLVAEAPSAKPPPDSLMCSGSSLVASAGLESHGRTPSPSPPCSSSPSPSGRAGPFSSSRCGASVPIPVPTQVQNYQRIERNLQSPTQFQTPRSSAIRRSGSTSPLGFARASPSPPAHAEHGGVLARKMSLGGGRPYTPSPQVGTIPERPGWSGTPSPQGAEMRGGRSPRPGSSAPEHSPRTSGLGCRLHSAPNLSDLHVVRPKLPKPPTDPLGAVFSPPQASPPQPSHGLQSCRNLRGSPKLPDFLQRNPLPPILGSPTKAVPSFDFPKTPSSQNLLALLARQGVVMTPPRNRTLPDLSEVGPFHGQPLGPGLRPGEDPKGPFGRSFSTSRLTDLLLKAAFGTQAPDPGSTESLQEKPMEIAPSAGFGGSLHPGARAGGTSSPSPVVFTVGSPPSGSTPPQGPRTRMFSAGPTGSASSSARHLVPGPCSEAPAPELPAPGHGCSFADPITANLEGAVTFEAPDLPEETLMEQEHTEILRGLRFTLLFVQHVLEIAALKGSASEAAGGPEYQLQESVVADQISLLSREWGFAEQLVLYLKVAELLSSGLQSAIDQIRAGKLCLSSTVKQVVRRLNELYKASVVSCQGLSLRLQRFFLDKQRLLDRIHSITAERLIFSHAVQMVQSAALDEMFQHREGCVPRYHKALLLLEGLQHMLSDQADIENVTKCKLCIERRLSALLTGICA
Turning to B1, the binding result is recorded as “binds”.
